Our source for the Kd values is US20180149657A1 (IMMUNOMEDICS, published 2018).

This test addresses T1, human Trop-2 (human, UniProt P09758 27-323).
T1 construct: whole, on cells; also called EGP-1; epithelial glycoprotein-1
T1 sequence (looked up): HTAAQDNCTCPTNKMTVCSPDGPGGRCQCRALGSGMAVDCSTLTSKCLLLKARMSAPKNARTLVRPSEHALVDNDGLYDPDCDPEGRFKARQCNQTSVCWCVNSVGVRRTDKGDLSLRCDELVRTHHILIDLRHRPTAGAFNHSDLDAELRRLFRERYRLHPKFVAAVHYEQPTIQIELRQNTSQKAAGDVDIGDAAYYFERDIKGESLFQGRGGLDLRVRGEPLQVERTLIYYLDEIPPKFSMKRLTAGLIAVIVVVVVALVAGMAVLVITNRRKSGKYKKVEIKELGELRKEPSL
Kind of test: cell binding assay on NCI-N87 cells, anti-mouse-HRP secondary, luminescence.

As usually defined, the Kd is the free concentration of one partner at which half of the binding sites on the other are occupied at equilibrium, for simple one-to-one binding. Read a low Kd as a tighter complex.

B1: murine RS7 (antibody, V domains shown)
VH: VKLQESGPELKKPGETVKISCKASGYTFTNYGMNWVKQAPGKGLKWMGWINTYTGEPTYTDDFKGRFAFSLETSATTAYLQINNLKSEDMATYFCARGGFGSSYWYFDVWGQGTTVTVSS
VL: DIQLTQSHKFMSTSVGDRVSITCKASQDVSIAVAWYQQKPGQSPKLLIYSASYRYTGVPDRFTGSGSGTDFTFTISSVQAEDLAVYYCQQHYITPLTFGAGTKLELK
As for B1, the affinity, expressed as Kd, was 0.57 nM.
